The nature of the series: protease stability score; higher = more stable; yeast display proteolysis, trypsin and chymotrypsin.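 Also: log10 excess protease needed over predicted unfolded state with 0 meaning unfolded.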
With “DEENREVMERFVQAFNRNNPDQLNTNADPNAKFVIGDKTINGRERMKKWQEEQNTHMRQHLEVTSISVHGNSITARVRMQFQVNGQPQEVDLTLHATIHNGQIKQLTFNLDKDEKKQIDK”, the protease stability score was -0.133.
Sequence “DESLEERLDTLRKVEEQGDEDTAREQADPNVKIVVGDRRVHGMDEQLEELRRRVKEARVTIESLSVDAHGDKVDVKVRLTFTIDGRPASVNLHQHYQLQNGKFKHVEARFSEEDRDELQT” returned a protease stability score of 0.846.
Turning to “DEDDQKLITEFLKALERGDPDRLLENADPNASARVGDKDVHGMHNAATDWVRERNSMDVTYDSVEIHVHNGRATIHLDAQFDFNGKPWRDTMTVEIVIRNGKIKDIIFRFDEQQLRDITK”, the protease stability score is 0.714.
As for “DEDVKELAEKYWKVVKEGNPHEVKKMVDPNVKFNVGEQHIHGREEVARQVSKENREIRINYQLRDVKVHNGRVDVTADLEEEHNGKPETNKVKAHFVFRNGRVQTLSQTNKK”, the protease stability score was -0.031.
The value for “DEDLKHLFHTFQKVLEEGNREKLRRLADENVTVSYGDKRVHGMESFARQVKEERDEQRVVINIRKVDVSGDQVRVVADVEREHNGKPDRKNLVMEANAEGDKFREVKYTEHG” was 0.151; that for “DDDVVRKAHSFFRQYQRGNPDHLLKMMDPNARVRYGDKTYQGREDLKEILQHQLDRIRIRVKRMSLRAENGHLNVEVDEVLEHNGEPRRATADVKVTWRNGRIHEMQVVWRG” was 0.27; that for “DEENAHEAVRIWETGDPQENADLVDPNVHARYGDKKIRGREDMEEFWRRMHHQIDHKDVRDIQVSGNHIEIDMEINVDGVRARYVARYHMDNGKIKSANAEFRDPDEKQDIRRALD” was 0.275.
“DEEHNERVAEEINRIMRDGDEERFEEMVDEDVKLQVGDKTWSGREEARKWQHEMWNSVDHVHIQDFEVSGDEIVIHFQLEHNGRREQAVVIVRFSNGRIKMMTIETQ” displayed a protease stability score of 1.41.
“DEHNSRQAKEWVKALNHNDTSRLMELVDPNATITVGDKSLTGREQMSEDVDRKREEINVFVNRVEVNSHGDRAKVRIDYQQHENGRPQRNVIVAILQFHNGKIQRVENEHDQ” yielded a protease stability score of -0.052.
The value for “DTHDVKRILDELKTNDEDMNRHLVDPNAKLRIGDKEIHGREELTEFYHRFHKQVDSQRIKDVRVHGNRFRVEFEAVFNGQTVEASYEATFHNGKATSLRYTATSNEELKNLQKVMD” was 0.147.
Turning to “DDRQMDHFAHQFERNNPDEYRKMLDPNARAEYGDKDYSGREQVQTLADTLHKQFDHLEVKDYRFNNGRAEFRYEAKFNGKTLTMKMVAEVKNGHIKHVVFRVTDPRQRKDLQREFG”, the protease stability score stood at 0.156.
As to “DEDDWKKFMKFLKNLRNGDDEQAAKQADPNARFEYGDETIHGREHFRKHVKDTKDHARYSFNLKDYRVTPGRIEARMDVHSMENGRPDSNDVVLILSLSNGRIKKVEMKQVS”, the protease stability score stood at 0.063.
In turn, “DEKNMRVVETYLKALTRGDPDQAMRQVDEDVELTVGDKEVKGREEFSKLVKKWQDQARFSLQIHRVKVHENHVNINAEVTWDVNGKPQSFSHIIHARVHNGRIKHMSWEVPTEEWQNIEK” registered a protease stability score of 1.29.
As for “DEKDQTRKAEKAARIFQHGNPDDVREMADEDVKVQIGDNRINGRHNLDTEVKELRDRVDDAKIEDFRASGNTIVLHIRFVVDGVDVHITIHINYHNGKAKRIDVKYTDERQKRRQDS”, the protease stability score is 0.739.
The sequence “DEEHREDSIRKVFEVLQTGDPKRFRENVDKNAKARVGDREVRGTKAADTFAHNIVKRADHVRIRRVHVHNGVVVVTEQQTVNGKEVIMVVFMEMNNGKMKLVEVNPEQLKELEG” showed a protease stability score of -0.394.
The sequence “DSERAKEVVKEFEHNDRQKFRDLFDEDASVTIGNRTYHGRHEVERALKRHIDRVDHVKINSVQIRGERIHMEAVFNINGQEFTLQMTLQLSNGKVKTWVLRVTDPDLKRKLHKNME” came in with a protease stability score of 1.15.
In turn, “DNQDARKLQEYFRNMVTGNEQRAMQYMDKDVTVHVGDKVFHGMERAVKTLVQRLKEIRVHYKFKQVSVQGNKVNIKADVEEDDNGRPETKRLEMDVEWHNGKVKKVVIKNDR” came in with a protease stability score of 1.49.
For the sequence “EDEVNKILEDVATAIRTGDPDRVVENLDPNAKVQVGDKTLDGQKEVREFFERNQREASVRLHVTSVHVNGDKVKMKANYQQNRNGNPDFKDVDVTAHAHNGKLKVMEHRRDG”, the protease stability score is -0.451.
“DEENRKQFEEIVRVWNKGDEKRFNNLFDPNARFRYGDKEYKGNQSLMNWWRHLKKQARVEIDVKEVHVDGDKVHAHFRVTFDINGRPETQDVDVVLTVQNGRAKNFDNRIDPEFMRRVQS” registered a protease stability score of 0.141.
On to “DEEQHNFANKVWEAITKGDPDEIRRLFDENVRVKVGNKTITGREELSETMEKIKKHLRMRVQVDEIEFDGDQIRVHFTANLNVNGRPVEYRAELIMHVHDGRVKHMHLRVPEQVERELEK”, for which the protease stability score stood at 1.05.
As to “DEKRMLKVAKEVAEMVRRGDADRVHKYLKEGGRAEVGDTEINGPDQMKEYVKKVKDQGAHNEYKETEYKGDTMTIKTQAHLGDATVDFEVHYQVKGDKVERVEVRFNKEQLKKFKDS”, the protease stability score is -0.087.
For “EEEKKNRAHQFLKAVERGDPEELRKQFDPNAHARVGDKRYHGMEEWAKDVMRRVRELRMSIKRLSVDVQGNDVKVNMNLVINRNGKPKEFREVWYFKIHNGHFVELHVQEEP”, the protease stability score amounted to 0.477.
The sequence “DEKREQELAKKFADVFQRNNESELRKMIDENARYEIGDKTYRGTKAVKHVMKKVHDRADHVQVENFKAHNGTMELYLRYHVNGQDVRIIIELELRNGKVQHARYDVTSEEDRHNVEN” yielded a protease stability score of 0.041.
Sequence “ETHVINRAIEAARHGDEDTLSKLADENAHVSVGDKEFHGREQVKNALKDWHDQVDTFEMKKVEVRGNKADVKIKVVVNGRDMTMRMEINAKGESIREINFSYRDERAKHHAQNAQG” yielded a protease stability score of 0.169.
In turn, “DEREEEKMAEDLLNAVERNNPDHAQKMVDENARVVIGDKDVHGRERMREAIKRQKEQFDRFRWTDVKVDNGRVRAQAVYERNGRTHHVDLNAVIHNGRAKSVRIEEK” had a protease stability score of 0.022.
“DETKQAERVAETEKRIWERGDPDKLNEMFDPNVRIDVGDKEVNGREKLKEYIERILTQVDHVRLNFTSISVHNGSVELKYTLVREDNGRRRRDTFVIHMELHNGQARVTSVRRG” displayed a protease stability score of 0.405.
Take “DSTNVEILKEYVENQRRGNEDQLRRLMDPNVHVQVGDKQLHGDRQITDEFRRQQEHLRFSIKTYDYRDQGDKVRAHIVYEQMHNGRPETVRHNMVAEIHNGNIKYLQIESDQ”: the protease stability score was -0.301.
In turn, “DDEEHRRILERFVRAFQTGDEDDLRNLADPNAKAQVGDKQVHGMDKFATHIRELVDRIDHIDVKSLTASGNTLHARIKFRVNGHDVTVVMRIQVHNGKLKRIEIDPEVVRQIEG” returned a protease stability score of 1.22.
In turn, “DEDVVDEFRRAIESNDFDRLVELADENAKADIGNKTVRGRDEMKDLMTSQKRRVDHLQVTSFSIDGDKLTVRYIANIDGHKIDNVVRFVAHNGKLKHMEVRARSEEQQKTLEKLIG” returned a protease stability score of 0.059.
With “EDELRDQFKRFMNAWERGDPDKLRSLVDPNAEVVVGDKVYHGMTHAADEIVRHMKESRYTIKIESINVNGDNIEVTARVTADHNGKPQDASFHASARLENGHVTSMEVQIRE”, the protease stability score was 0.916.
Sequence “DEQKEMKRFANQFNSAIRHGDEKKMADLFDPNARMEVGDTSWNGRRNLEKEWKRRNETIDHARVHLQDVSVDGNSATVVFVLVENVNGEERNDVYVFVAVKHNGKIVIDHMTQK” came in with a protease stability score of 0.159.
As for “DEQNLQDAAQRVDEVLRKGNEEDVTKMMDKDATMTVGDKVIHGRSKVRQQVRRLHEQVDHQEVEYVTAHNGRIKINMQADVNGQSLTFTVHIKVRNGRVKEIQIDPDYKRNLDR”, the protease stability score was -0.224.
In turn, “DSKELARRFHTELLENLRHNDSERLRRLLDEDARVHVGDKEVHGREQFADEQTKIMEHFDRVELRIREVTIEEGRVKVLIHFDADNNGEKHTDNSEVTFDNQGDKLTNKTQHES” registered a protease stability score of -0.13.
On to “DHRAFELAKNILEAIRTNDPDTVKHQLDKNATLRYGEFEVHGREDASRFVETLIRKMRVEFDIKDYHVHGDSAVMDADVKVERNGRPDTRKLNVNVNVHNGKMSHIVFELRG”, for which the protease stability score was determined as 0.693.
Regarding “DERWKEKFEQMVRDQKTGNEDEVAKYFDKNAEIKVGDQRFHGREQLREHLREQRRQMRVDIDIKHVDVKGNHITVEYEFRENHNGRPTRRKATLRAEYHNGKIQRMRIDKSG”, the protease stability score stood at 1.33.
For the sequence “DEEALKRVEKFWEALNTGNEDELRKQLDPNARIRIGDKDIQGREDMAKWVRRVNRQMKMTVTIEDMQTRPGRAEIDAKASVNHNGRPNQHDVKLSAEFHNGQITSLTVQLKG”, the protease stability score amounted to 0.592.
For “DEKEIHEIAETFVEVLRNGNHDDLKELMDENVKLVYGDKELQGHHRAASHLAELVSRVDHMSVDSITVNGDSVKVIMQFVVNGVTAHITIIIKMTNGRIKELEIRYTNEDQRRQVDK”, the protease stability score came to 0.941.
For “DERLLHEFQKNVENNNWDKLSELVDEDAKIKYGDKTITGRESLDRMFTQLKRQVDHVDIESVHIDGDKVHVDLRIRVNGHSVRFIMTAEFSNGRIKSMKIEVTSEEQQDHLNEQLS”, the protease stability score amounted to 1.19.
As for “DDQQKAKTHVRQVRDAATSNDPDEMRRLADENARFVVGDKEYEGRDQVRELVERERDNVDQVEIRLTDVEKRGDRLRLEVRVVWNHNGSHDHKILDMIVQNHNGTLRFVQLQQR”, the protease stability score was 0.366.
Sequence “DEDAVRLAHKFQDVLNKGDPDKAMRLADPNARVQIGDTEIRGREQLSHHVNEMSNSIRFDLKHVDAQTRGDHVDVRVDQINEVDGRPTRNTDKMTIQIKNGKIVNVNVRVDEDRKQQERD” yielded a protease stability score of -0.632.
The sequence “DEEFQTEAEKMFTNQRNNNEDHLKDQFDKDAKVQVGDKEFHGTERYEETFRTQMEHMRYDIDSFTARVHGEDLDVDVSFQFESNGKPDRNRAKIIATYHNGRIKHLRVDQDQ” displayed a protease stability score of 0.073.
Take “DEENIEQLRRMMTNLNTGDFHKMVNLMDPNARVRYGDRQISGREEVRKEWEKIVKSMHIERQVRSIEDHDGRAYADVELRVNVDGRPFSVRFTVVVEVRNGRVKFLEVRVPEEFMEKLDS”: the protease stability score is 1.07.
Turning to “DENDTARKIIKTLLDIMREGDEDKLRDQMDPNVRADVGDKTVHGREHAAKFLAHIVKRADHISITLKSLHNHNGRLRMQAEVRIVHNGRTERVTLEMVFRDHNGKLLIERMKYG”, the protease stability score was determined as 2.51.
To “DRDLNRHVKRFMDIIQNGDPDKAMEMVDPNVEFHVGDKRVHGQEELRELIKKEHDEQRKEIDDMRYDDRGSKAKINIEVRVEHNGRPNTVREDWNVEAKNGKIKRMNAKVDQ” belongs -0.495; to “DEEKQDTWAKEFVKMLKQGNKTDARRLFDPNATLEYGDKRVHGREQAVEAQKQRSDKVDHMQVDSVSAHNGKMDIDLVLNVNGERKRQRVVANIHNGKIKYFSVQDS”, -0.248.
The value for “DSTQVRILEEMNRAIERGDPERVYQLADPNARFQIGDTQIHGMESFMKHVEETVRHMRISIRSLHADDEGDKMKVTFTFVVNRDGQPRRRVVTATAHANGDQVKYLEWRDDE” was 0.477.
In the case of “DDDADRRARKLDQARKEGDPDKMRKNMDPNVRMQIGDQEWSGRETIANKLATDLKRMDIEITIKRYTWHNGTADIDADETFNVDGRPNSDKVRMEVHFHNGRVEHQILRVPEEFKHRLHK”, the protease stability score was -0.115.

Source of the values: the NTF2 design screens of Basanta et al. (2020).
